Legend:
Test in all cases: cell-based or functional assay
[1] = target: HIV-1 Env of isolate MGRM-F1-020 (pseudovirus) (HIV-1)
[2] = target: HIV-1 envelope glycoprotein (Env) of isolate TRO.11, on pseudovirus (HIV-1)
[3] = target: HIV-1 envelope glycoprotein (Env) of isolate MG RM-A-005, subtype A (HIV-1)
[4] = target: HIV-1 envelope glycoprotein (Env) of isolate MGRM-Chronic-B-017, on pseudovirus (HIV-1)
[5] = target: HIV-1 envelope glycoprotein (Env) of isolate MGRM-Chronic-B-002, on pseudovirus (HIV-1)
[6] = target: HIV-1 envelope glycoprotein (Env) of isolate CAAN.A2, on pseudovirus (HIV-1)
[7] = target: HIV-1 envelope glycoprotein (Env) of isolate MGRM-Chronic-B-003, on pseudovirus (HIV-1)
[8] = target: HIV-1 Env of isolate MGRM-D-008 (clade D pseudovirus) (HIV-1)
[9] = target: HIV-1 Env of isolate MGRM-A-005 (clade A pseudovirus) (HIV-1)
[10] = target: HIV-1 Env of isolate 93UG077 (clade A pseudovirus) (HIV-1)
[11] = target: HIV-1 MGRM-G-006 Env (pseudovirus) (HIV-1)
[12] = target: HIV-1 92RW024 envelope glycoprotein (Env) on pseudovirus (HIV-1 (clade A))
[13] = target: HIV-1 Env of isolate MGRM-D-011 (clade D pseudovirus) (HIV-1)
[14] = target: HIV-1 MGRM-AE-003 Env (pseudovirus) (HIV-1)
[15] = target: HIV-1 Env of isolate 6535.3 (Acute), clade B (HIV-1)
[16] = target: HIV-1 Env of isolate MGRM-D-024 (clade D pseudovirus) (HIV-1)
[17] = target: HIV-1 Env of isolate MGRM-A-004 (clade A pseudovirus) (HIV-1)
[18] = target: HIV-1 Env of isolate PVO.4 (Acute), clade B (HIV-1)
[19] = target: HIV-1 MGRM-AE-007 Env (pseudovirus) (HIV-1)
[20] = target: HIV-1 IAVI-C18 envelope (Env) on pseudovirus (HIV-1)
[21] = target: HIV-1 Env of isolate MGRM-D-021 (clade D pseudovirus) (HIV-1)
[22] = target: HIV-1 92TH021 Env (pseudovirus) (HIV-1)
[23] = target: HIV-1 Env of isolate NL43, clade B (HIV-1)
[24] = target: HIV-1 envelope glycoprotein (Env) of isolate MGRM-C-023 (HIV-1)
[25] = target: HIV-1 Env of isolate 92TH021 (CRF01_AE) (HIV-1)
[26] = target: HIV-1 Env of isolate MGRM-AE-007 (pseudovirus) (HIV-1)
HIV-1 APV6 Env (HIV-1) = target: HIV-1 APV6 Env (HIV-1)
[27] = target: HIV-1 Env of isolate MGRM-D-013 (pseudovirus) (HIV-1)
[28] = target: HIV-1 Env of isolate MGRM-A-008 (subtype A) (HIV-1)
[29] = target: HIV-1 Env of isolate MGRM-AG-008 (subtype AG) (HIV-1)
[30] = target: HIV-1 Env of isolate 92TH021 (subtype AE) (HIV-1)
[31] = target: HIV-1 Env of isolate MGRM-C-004 (HIV-1)
[32] = target: HIV-1 JR-CSF Env T413A (HIV-1 (isolate JR-CSF)) (UniProt P20871)
[33] = target: HIV-1 JR-CSF Env T394A (HIV-1 (isolate JR-CSF)) (UniProt P20871)
[34] = target: HIV-1 JR-CSF Env I414A (HIV-1 (isolate JR-CSF)) (UniProt P20871)
[35] = target: HIV-1 JR-CSF Env D417A (HIV-1 (isolate JR-CSF)) (UniProt P20871)
[36] = target: HIV-1 JR-CSF Env W395A (HIV-1 (isolate JR-CSF)) (UniProt P20871)
[37] = target: HIV-1 Env of isolate MGRM-G-014 (subtype G) (HIV-1)

| Substance | IC50, pseudovirus neutralization [8] | IC50 (µg/ml), pseudovirus neutralization [9] | IC50 (µg/ml), pseudovirus neutralization [10] | IC50 (µg/ml), pseudovirus neutralization [11] | IC50 (µg/ml), pseudovirus neutralization [12] | IC50, pseudovirus neutralization [13] | IC50 (µg/ml), pseudovirus neutralization [14] | IC50 (µg/ml), pseudovirus neutralization [15] | IC50, pseudovirus neutralization [16] | IC50 (µg/ml), pseudovirus neutralization [17] | IC50 (µg/ml), pseudovirus neutralization [18] | IC50 (µg/ml), pseudovirus neutralization [19] | neutralization IC50 [20] | IC50, pseudovirus neutralization [21] | IC50 (µg/ml), pseudovirus neutralization [22] | IC50 (µg/ml), pseudovirus neutralization [23] | IC50 (µg/ml), pseudovirus neutralization [24] | IC90 (neutralization of pseudovirus) [25] | IC50 (µg/mL), pseudovirus neutralization [26] | also measured |
| --- | --- | --- | --- | --- | --- | --- | --- | --- | --- | --- | --- | --- | --- | --- | --- | --- | --- | --- | --- | --- |
| 4838_L06 (PGT-121) (antibody) | – | – | – | – | – | – | – | – | – | – | – | – | – | – | – | – | – | – | – | IC50 (µg/mL), pseudovirus neutralization [1]: 0.167 µg/mL; IC50, pseudovirus neutralization [2]: 0.008 µg/mL; IC50, pseudovirus neutralization [3]: > 50 µg/mL; IC50, pseudovirus neutralization [4]: > 50 µg/mL; IC50, pseudovirus neutralization [5]: 0.386 µg/mL; IC50, pseudovirus neutralization [6]: 0.011 µg/mL; IC50, pseudovirus neutralization [7]: 0.011 µg/mL |
| 1495_C14 (PGC14) (antibody) | > 50 µg/mL | > 50 µg/mL | > 50 µg/mL | > 50 µg/mL | > 50 µg/mL | > 50 µg/mL | > 50 µg/mL | 35 µg/mL | > 50 µg/mL | > 50 µg/mL | > 50 µg/mL | > 50 µg/mL | > 50 µg/mL | > 50 µg/mL | > 50 µg/mL | 40 µg/mL | > 50 µg/mL | – | – | – |
| 2F5 (antibody) | > 50 µg/mL | 5.7 µg/mL | 3.3 µg/mL | 1.33 µg/mL | 8.22 µg/mL | > 50 µg/mL | 0.24 µg/mL | 2.76 µg/mL | > 50 µg/mL | 7.49 µg/mL | > 50 µg/mL | 0.07 µg/mL | > 50 µg/mL | > 50 µg/mL | – | 2.02 µg/mL | > 50 µg/mL | 18.8 µg/mL | – | – |
| b12 (antibody) | > 50 µg/mL | 3.64 µg/mL | 47 µg/mL | > 50 µg/mL | > 50 µg/mL | 7.75 µg/mL | > 50 µg/mL | 1.93 µg/mL | 5.92 µg/mL | > 50 µg/mL | > 50 µg/mL | > 50 µg/mL | > 50 µg/mL | 5.23 µg/mL | – | 0.17 µg/mL | 13.9 µg/mL | > 50 µg/mL | – | – |
| 4877_D15 (PGT-122) (antibody) | – | – | – | – | – | – | – | – | – | – | – | – | – | – | – | – | – | – | > 50 µg/mL | IC50 (µg/mL), pseudovirus neutralization [1]: 0.321 µg/mL; IC50, pseudovirus neutralization [2]: 0.011 µg/mL; IC50, pseudovirus neutralization [3]: > 50 µg/mL; IC50, pseudovirus neutralization [4]: 5.66 µg/mL; IC50, pseudovirus neutralization [5]: 1.8 µg/mL; IC50, pseudovirus neutralization (HIV-1 APV6 Env (HIV-1)): 0.0851 µg/mL; IC50, pseudovirus neutralization [6]: 0.011 µg/mL; IC50, pseudovirus neutralization [7]: 0.008 µg/mL |
| 5345_I01 (PGT-137) (antibody) | – | – | – | – | – | – | – | – | – | – | – | – | – | – | – | – | – | – | – | IC50 (µg/mL), pseudovirus neutralization [27]: > 50 µg/mL; IC50, pseudovirus neutralization [28]: > 50 µg/mL; IC50, pseudovirus neutralization [29]: > 50 µg/mL; IC50, pseudovirus neutralization [30]: > 50 µg/mL; IC50 (µg/mL), pseudovirus neutralization [31]: 0.026 µg/mL |
| 5329_C19 (PGT-136) (antibody) | – | – | – | – | – | – | – | – | – | – | – | – | – | – | – | – | – | – | – | IC50 (µg/mL), pseudovirus neutralization [27]: > 50 µg/mL; IC50, pseudovirus neutralization [28]: > 50 µg/mL; IC50, pseudovirus neutralization [29]: > 50 µg/mL; IC50, pseudovirus neutralization [30]: > 50 µg/mL; IC50 (µg/mL), pseudovirus neutralization [31]: 0.034 µg/mL |
| 4E10 (antibody) | 42.9 µg/mL | 4.09 µg/mL | 10.6 µg/mL | 1.23 µg/mL | 8.88 µg/mL | 0.91 µg/mL | 0.34 µg/mL | 1.23 µg/mL | 3.6 µg/mL | 3.14 µg/mL | 18.3 µg/mL | 0.45 µg/mL | > 50 µg/mL | 13.3 µg/mL | 1.17 µg/mL | 4.67 µg/mL | 1.95 µg/mL | 23.5 µg/mL | – | – |
| 2G12 (antibody) | > 50 µg/mL | > 50 µg/mL | > 50 µg/mL | > 50 µg/mL | > 50 µg/mL | 1.5 µg/mL | > 50 µg/mL | 3.85 µg/mL | > 50 µg/mL | > 50 µg/mL | 0.8 µg/mL | > 50 µg/mL | > 50 µg/mL | 23 µg/mL | > 50 µg/mL | 0.49 µg/mL | > 50 µg/mL | > 50 µg/mL | – | – |
| 1443_C16 (PG16) (TCN-116) (antibody) | > 50 µg/mL | 0.09 µg/mL | > 50 µg/mL | 2.42 µg/mL | 0.08 µg/mL | 0.01 µg/mL | 0.03 µg/mL | 36.9 µg/mL | 0.02 µg/mL | 0.04 µg/mL | 5.43 µg/mL | 0.04 µg/mL | 0.0067 µg/mL | > 50 µg/mL | 0.1 µg/mL | 0.02 µg/mL | 0.09 µg/mL | 23.4 µg/mL | – | – |
| 4858_P08 (PGT-123) (antibody) | – | – | – | – | – | – | – | – | – | – | – | – | – | – | – | – | – | – | > 50 µg/mL | IC50 (µg/mL), pseudovirus neutralization [1]: 0.051 µg/mL; IC50, pseudovirus neutralization [2]: 0.008 µg/mL; Fold IC50 increase relative to wild-type (pseudovirus neutralization) [32]: 0.4 fold; IC50, pseudovirus neutralization [3]: > 50 µg/mL; IC50, pseudovirus neutralization [4]: > 50 µg/mL; Fold IC50 increase relative to wild-type (pseudovirus neutralization) [33]: 0.4 fold; IC50, pseudovirus neutralization [5]: 0.234 µg/mL; IC50, pseudovirus neutralization (HIV-1 APV6 Env (HIV-1)): 0.0327 µg/mL; IC50, pseudovirus neutralization [6]: 0.015 µg/mL; Fold IC50 increase relative to wild-type (pseudovirus neutralization) [34]: 0.3 fold; Fold IC50 increase relative to wild-type (pseudovirus neutralization) [35]: 0.7 fold; IC50, pseudovirus neutralization [7]: 0.008 µg/mL; Fold IC50 increase relative to wild-type (pseudovirus neutralization) [36]: 0.4 fold |
| PGV04 (antibody) | – | – | – | – | – | – | – | – | – | – | – | – | – | – | – | – | – | – | 5.75 µg/mL | IC50 (µg/mL), pseudovirus neutralization [37]: 0.056 µg/mL |
| 1496_C09 (PG9) (TCN-109) (antibody) | 6.86 µg/mL | – | – | 0.51 µg/mL | 0.18 µg/mL | 0.06 µg/mL | – | 0.22 µg/mL | 0.03 µg/mL | – | 4.01 µg/mL | – | 0.0535 µg/mL | – | 0.09 µg/mL | 0.32 µg/mL | 0.51 µg/mL | 1.99 µg/mL | 0.18 µg/mL | IC50, pseudovirus neutralization (HIV-1 APV6 Env (HIV-1)): 0.214 µg/mL; IC50 (µg/mL), pseudovirus neutralization [37]: 16.5 µg/mL |

From US20240132578A1
